The values that follow come from article PMC2912378 (PLoS ONE, 2010).

This test addresses T1, RelA (p65) (endogenous, BV-2 microglial cells) (mouse (endogenous in BV-2), UniProt Q04207 1-549).
T1 construct: NF-kappa B family member RelA (p65), endogenous in the murine microglial cell line BV-2; source: endogenous, BV-2 whole cell lysate
Put plainly: co-IP; whole cell lysates of BV-2 cells, untreated or treated with Tat (100nM) for 4h or 8h; immunoprecipitation with a RelA-specific antibody and Protein A/G+ agarose beads, 4°C, washed with ELB lysis buffer; immunoblot with RelB-specific antibody; densitometry normalised to precipitated RelA. To be noted: partners not purified. (A western blot detects proteins with antibodies after separation by electrophoresis.)

T1 sequence (Q04207 whole entry): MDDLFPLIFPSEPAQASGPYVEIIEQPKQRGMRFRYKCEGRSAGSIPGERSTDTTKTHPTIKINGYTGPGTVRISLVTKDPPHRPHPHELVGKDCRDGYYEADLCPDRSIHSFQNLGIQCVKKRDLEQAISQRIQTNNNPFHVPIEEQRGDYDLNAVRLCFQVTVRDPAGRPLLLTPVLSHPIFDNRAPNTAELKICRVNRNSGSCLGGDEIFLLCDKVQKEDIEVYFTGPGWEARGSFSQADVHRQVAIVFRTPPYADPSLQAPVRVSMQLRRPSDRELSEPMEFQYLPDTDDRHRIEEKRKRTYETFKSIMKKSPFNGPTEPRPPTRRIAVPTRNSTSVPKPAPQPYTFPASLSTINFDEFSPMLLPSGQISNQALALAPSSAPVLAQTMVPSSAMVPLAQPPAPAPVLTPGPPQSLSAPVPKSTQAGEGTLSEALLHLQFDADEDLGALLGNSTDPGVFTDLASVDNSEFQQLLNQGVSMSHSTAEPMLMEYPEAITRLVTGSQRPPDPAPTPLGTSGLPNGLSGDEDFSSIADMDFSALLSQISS

B1: RelB (endogenous, BV-2 microglial cells) (natural protein, mouse (endogenous in BV-2), UniProt Q04863 1-558, looked up)
chain: MPSRRAARESAPELGALGSSDLSSLSLTVSRTTDELEIIDEYIKENGFGLDGTQLSEMPRLVPRGPASLSSVTLGPAAPPPPATPSWSCTLGRLVSPGPCPRPYLVITEQPKQRGMRFRYECEGRSAGSILGESSTEASKTLPAIELRDCGGLREVEVTACLVWKDWPHRVHPHSLVGKDCTDGVCRVRLRPHVSPRHSFNNLGIQCVRKKEIEAAIERKIQLGIDPYNAGSLKNHQEVDMNVVRICFQASYRDQQGHLHRMDPILSEPVYDKKSTNTSELRICRINKESGPCTGGEELYLLCDKVQKEDISVVFSTASWEGRADFSQADVHRQIAIVFKTPPYEDLEISEPVTVNVFLQRLTDGVCSEPLPFTYLPRDHDSYGVDKKRKRGLPDVLGELSSSDPHGIESKRRKKKPVFLDHFLPGHSSGLFLPPSALQPADSDFFPASISLPGLEPPGGPDLLDDGFAYDPSAPTLFTMLDLLPPAPPLASAVVGSGGAGATVVESSGPEPLSLDSFAAPGPGDVGTASLVGSNMFPNQYREAAFGGGLLSPGPEAT
notes: NF-kappa B family member RelB, endogenous in the murine microglial cell line BV-2; source: endogenous, BV-2 whole cell lysate
With B1, the “fold increase of co-precipitated RelB (normalised to precipitated RelA) with Tat against untreated cells” value came to 4 fold.
